# Assay results from publication PMC9482650, “Quantitative fragmentomics allow affinity mapping of interactomes” (Nature Communications, 2022).
# T1: LNX2_3, Q8N448
# T1 sequence (Q8N448 463-564, limits assumed, looked up): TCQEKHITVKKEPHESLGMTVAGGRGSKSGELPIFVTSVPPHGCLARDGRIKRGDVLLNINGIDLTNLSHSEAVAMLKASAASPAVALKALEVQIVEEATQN
# T2: SHANK1, Q9Y566
# T2 sequence (Q9Y566 658-767, limits assumed, looked up): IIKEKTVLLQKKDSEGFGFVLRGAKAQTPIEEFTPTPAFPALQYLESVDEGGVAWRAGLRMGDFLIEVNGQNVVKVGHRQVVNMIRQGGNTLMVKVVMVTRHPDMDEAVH
# T3: LRRC7, Q96NW7
# T3 sequence (Q96NW7 1440-1537, limits assumed, looked up): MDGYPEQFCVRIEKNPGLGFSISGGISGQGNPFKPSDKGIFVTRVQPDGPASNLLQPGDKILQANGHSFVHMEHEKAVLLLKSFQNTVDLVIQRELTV
# T4: APBA3_1, O96018
# T4 sequence (O96018 389-490, limits assumed, looked up): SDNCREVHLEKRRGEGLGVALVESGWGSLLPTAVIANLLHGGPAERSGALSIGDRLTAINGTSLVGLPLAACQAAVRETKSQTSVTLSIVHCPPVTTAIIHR
# T5: RAPGEF6, Q8TEU7
# T5 sequence (Q8TEU7 525-625, limits assumed, looked up): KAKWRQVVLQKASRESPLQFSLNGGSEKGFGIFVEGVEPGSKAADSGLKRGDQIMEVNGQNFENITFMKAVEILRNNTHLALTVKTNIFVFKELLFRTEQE
# T6: LIN7C, Q9NUP9
# T6 sequence (Q9NUP9 88-185, limits assumed, looked up): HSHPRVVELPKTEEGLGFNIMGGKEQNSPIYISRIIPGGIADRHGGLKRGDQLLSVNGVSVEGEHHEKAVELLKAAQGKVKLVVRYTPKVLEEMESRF
# T7: ARHGAP21, Q5T5U3
# T7 sequence (Q5T5U3 45-169, limits assumed, looked up): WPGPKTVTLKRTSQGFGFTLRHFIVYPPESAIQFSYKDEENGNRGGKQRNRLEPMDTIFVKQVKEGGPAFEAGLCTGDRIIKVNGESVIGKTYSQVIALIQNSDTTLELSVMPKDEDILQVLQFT
# T8: APBA1_1, Q02410
# T8 sequence (Q02410 651-752, limits assumed, looked up): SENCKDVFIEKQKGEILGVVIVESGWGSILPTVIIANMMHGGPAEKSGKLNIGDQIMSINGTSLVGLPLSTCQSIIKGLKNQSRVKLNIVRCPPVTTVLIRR
# T9: FRMPD1, Q5SYB0
# T9 sequence (Q5SYB0 52-145, limits assumed, looked up): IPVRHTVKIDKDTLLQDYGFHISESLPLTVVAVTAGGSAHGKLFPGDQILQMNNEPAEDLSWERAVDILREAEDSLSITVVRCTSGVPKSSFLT
# T10: DLG3_3, Q92796
# T10 sequence (Q92796 374-475, limits assumed, looked up): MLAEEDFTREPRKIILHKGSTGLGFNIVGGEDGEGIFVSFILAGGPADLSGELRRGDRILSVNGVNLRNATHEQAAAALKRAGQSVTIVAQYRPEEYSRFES
# T11: TJP3_3, O95049
# T11 sequence (O95049 375-456, limits assumed, looked up): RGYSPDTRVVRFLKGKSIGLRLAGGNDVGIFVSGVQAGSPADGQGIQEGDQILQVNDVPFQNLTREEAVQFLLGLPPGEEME
# Biological target: T1, LNX2_3, Q8N448
# Test: holdup assay
# Design: key: below the threshold = too weak to quantify, mostly under pKd 3.1 to 4
# Conditions: plain residues with an end cap or a label only (N-terminal biotin on a linker: ado-ado)
row,Binder,pKd
1,"CLREWCDAFL [BANF1, O75531]",below the threshold
2,"LGRSTPQSEV [DGKH, Q86XP1]",below the threshold

# Biological target: PTPN3, P26045
# Test: holdup assay
# Design: key: below the threshold = too weak to quantify, mostly under pKd 3.1 to 4
# Conditions: plain residues with an end cap or a label only (N-terminal biotin on a linker: ado-ado)
# Chain of PTPN3, P26045 (P26045 505-587): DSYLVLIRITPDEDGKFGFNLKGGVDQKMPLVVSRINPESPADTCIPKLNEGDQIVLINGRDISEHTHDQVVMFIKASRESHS
row,Binder,pKd
1,"CLREWCDAFL [BANF1, O75531]",4.47
2,"LGRSTPQSEV [DGKH, Q86XP1]",4.12

# Biological target: T2, SHANK1, Q9Y566
# Test: holdup assay
# Design: key: below the threshold = too weak to quantify, mostly under pKd 3.1 to 4
# Conditions: plain residues with an end cap or a label only (N-terminal biotin on a linker: ado-ado)
row,Binder,pKd
1,"CLREWCDAFL [BANF1, O75531]",4.14
2,"LGRSTPQSEV [DGKH, Q86XP1]",below the threshold

# Biological target: Inadl_2, Q8NI35
# Test: holdup assay
# Design: key: below the threshold = too weak to quantify, mostly under pKd 3.1 to 4
# Conditions: plain residues with an end cap or a label only (N-terminal biotin on a linker: ado-ado)
# Chain of Inadl_2, Q8NI35 (Q8NI35 238-335): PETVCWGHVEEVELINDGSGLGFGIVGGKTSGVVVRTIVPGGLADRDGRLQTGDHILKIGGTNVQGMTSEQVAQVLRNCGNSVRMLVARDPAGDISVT
row,Binder,pKd
1,"CLREWCDAFL [BANF1, O75531]",below the threshold
2,"LGRSTPQSEV [DGKH, Q86XP1]",below the threshold

# Biological target: T3, LRRC7, Q96NW7
# Test: holdup assay
# Design: key: below the threshold = too weak to quantify, mostly under pKd 3.1 to 4
# Conditions: plain residues with an end cap or a label only (N-terminal biotin on a linker: ado-ado)
row,Binder,pKd
1,"CLREWCDAFL [BANF1, O75531]",3.84
2,"LGRSTPQSEV [DGKH, Q86XP1]",below the threshold

# Biological target: PDLIM1, O00151
# Test: holdup assay
# Design: key: below the threshold = too weak to quantify, mostly under pKd 3.1 to 4
# Conditions: plain residues with an end cap or a label only (N-terminal biotin on a linker: ado-ado)
# Chain of PDLIM1, O00151 (O00151 1-87): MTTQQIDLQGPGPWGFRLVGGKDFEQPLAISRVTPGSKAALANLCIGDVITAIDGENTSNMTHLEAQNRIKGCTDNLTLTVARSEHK
row,Binder,pKd
1,"CLREWCDAFL [BANF1, O75531]",below the threshold
2,"LGRSTPQSEV [DGKH, Q86XP1]",below the threshold

# Biological target: T4, APBA3_1, O96018
# Test: holdup assay
# Design: key: below the threshold = too weak to quantify, mostly under pKd 3.1 to 4
# Conditions: plain residues with an end cap or a label only (N-terminal biotin on a linker: ado-ado)
row,Binder,pKd
1,"CLREWCDAFL [BANF1, O75531]",below the threshold
2,"LGRSTPQSEV [DGKH, Q86XP1]",below the threshold

# Biological target: NHERF4_2, Q86UT5
# Test: holdup assay
# Design: key: below the threshold = too weak to quantify, mostly under pKd 3.1 to 4
# Conditions: plain residues with an end cap or a label only (N-terminal biotin on a linker: ado-ado)
# Chain of NHERF4_2, Q86UT5 (Q86UT5 220-308): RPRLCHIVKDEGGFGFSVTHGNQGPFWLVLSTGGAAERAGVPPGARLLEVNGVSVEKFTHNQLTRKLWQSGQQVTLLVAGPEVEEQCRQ
row,Binder,pKd
1,"CLREWCDAFL [BANF1, O75531]",below the threshold
2,"LGRSTPQSEV [DGKH, Q86XP1]",below the threshold

# Biological target: DLG2_2, Q15700
# Test: holdup assay
# Design: key: below the threshold = too weak to quantify, mostly under pKd 3.1 to 4
# Conditions: plain residues with an end cap or a label only (N-terminal biotin on a linker: ado-ado)
# Chain of DLG2_2, Q15700 (Q15700 189-283): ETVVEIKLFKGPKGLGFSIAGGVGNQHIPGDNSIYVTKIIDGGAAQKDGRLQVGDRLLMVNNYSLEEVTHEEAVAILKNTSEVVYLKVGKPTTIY
row,Binder,pKd
1,"CLREWCDAFL [BANF1, O75531]",below the threshold
2,"LGRSTPQSEV [DGKH, Q86XP1]",3.58

# Biological target: GRID2IP_1, A4D2P6
# Test: holdup assay
# Design: key: below the threshold = too weak to quantify, mostly under pKd 3.1 to 4
# Conditions: plain residues with an end cap or a label only (N-terminal biotin on a linker: ado-ado)
# Chain of GRID2IP_1, A4D2P6 (A4D2P6 1-87): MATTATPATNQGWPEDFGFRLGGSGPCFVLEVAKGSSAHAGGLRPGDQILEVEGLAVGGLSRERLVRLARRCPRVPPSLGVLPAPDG
row,Binder,pKd
1,"CLREWCDAFL [BANF1, O75531]",below the threshold
2,"LGRSTPQSEV [DGKH, Q86XP1]",below the threshold

# Biological target: MAGI2_4, Q86UL8
# Test: holdup assay
# Design: key: below the threshold = too weak to quantify, mostly under pKd 3.1 to 4
# Conditions: plain residues with an end cap or a label only (N-terminal biotin on a linker: ado-ado)
# Chain of MAGI2_4, Q86UL8 (Q86UL8 772-865): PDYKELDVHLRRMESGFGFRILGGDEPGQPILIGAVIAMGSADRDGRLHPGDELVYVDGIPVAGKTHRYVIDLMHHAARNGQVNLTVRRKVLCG
row,Binder,pKd
1,"CLREWCDAFL [BANF1, O75531]",3.73
2,"LGRSTPQSEV [DGKH, Q86XP1]",3.52

# Biological target: Inadl_4, Q8NI35
# Test: holdup assay
# Design: key: below the threshold = too weak to quantify, mostly under pKd 3.1 to 4
# Conditions: plain residues with an end cap or a label only (N-terminal biotin on a linker: ado-ado)
# Chain of Inadl_4, Q8NI35 (Q8NI35 547-651): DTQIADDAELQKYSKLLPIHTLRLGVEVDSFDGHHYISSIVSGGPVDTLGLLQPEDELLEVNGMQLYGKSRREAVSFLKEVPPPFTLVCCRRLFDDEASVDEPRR
row,Binder,pKd
1,"CLREWCDAFL [BANF1, O75531]",below the threshold
2,"LGRSTPQSEV [DGKH, Q86XP1]",below the threshold

# Biological target: MAGI3_2, Q5TCQ9
# Test: holdup assay
# Design: key: below the threshold = too weak to quantify, mostly under pKd 3.1 to 4
# Conditions: plain residues with an end cap or a label only (N-terminal biotin on a linker: ado-ado)
# Chain of MAGI3_2, Q5TCQ9 (Q5TCQ9 398-503): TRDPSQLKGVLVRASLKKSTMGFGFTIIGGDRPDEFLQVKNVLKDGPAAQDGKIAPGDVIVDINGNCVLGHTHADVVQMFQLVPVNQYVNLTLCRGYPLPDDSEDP
row,Binder,pKd
1,"CLREWCDAFL [BANF1, O75531]",below the threshold
2,"LGRSTPQSEV [DGKH, Q86XP1]",4.04

# Biological target: T5, RAPGEF6, Q8TEU7
# Test: holdup assay
# Design: key: below the threshold = too weak to quantify, mostly under pKd 3.1 to 4
# Conditions: plain residues with an end cap or a label only (N-terminal biotin on a linker: ado-ado)
row,Binder,pKd
1,"CLREWCDAFL [BANF1, O75531]",3.47
2,"LGRSTPQSEV [DGKH, Q86XP1]",below the threshold

# Biological target: LDB3, O75112
# Test: holdup assay
# Design: key: below the threshold = too weak to quantify, mostly under pKd 3.1 to 4
# Conditions: plain residues with an end cap or a label only (N-terminal biotin on a linker: ado-ado)
# Chain of LDB3, O75112 (O75112 1-94): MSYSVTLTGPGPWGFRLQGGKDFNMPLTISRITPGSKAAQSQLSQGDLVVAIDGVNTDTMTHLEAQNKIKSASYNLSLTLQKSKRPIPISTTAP
row,Binder,pKd
1,"CLREWCDAFL [BANF1, O75531]",below the threshold
2,"LGRSTPQSEV [DGKH, Q86XP1]",below the threshold

# Biological target: T6, LIN7C, Q9NUP9
# Test: holdup assay
# Design: key: below the threshold = too weak to quantify, mostly under pKd 3.1 to 4
# Conditions: plain residues with an end cap or a label only (N-terminal biotin on a linker: ado-ado)
row,Binder,pKd
1,"CLREWCDAFL [BANF1, O75531]",3.66
2,"LGRSTPQSEV [DGKH, Q86XP1]",below the threshold

# Biological target: T7, ARHGAP21, Q5T5U3
# Test: holdup assay
# Design: key: below the threshold = too weak to quantify, mostly under pKd 3.1 to 4
# Conditions: plain residues with an end cap or a label only (N-terminal biotin on a linker: ado-ado)
row,Binder,pKd
1,"CLREWCDAFL [BANF1, O75531]",4.41
2,"LGRSTPQSEV [DGKH, Q86XP1]",4.1

# Biological target: FRMPD2_1, Q68DX3
# Test: holdup assay
# Design: key: below the threshold = too weak to quantify, mostly under pKd 3.1 to 4
# Conditions: plain residues with an end cap or a label only (N-terminal biotin on a linker: ado-ado)
# Chain of FRMPD2_1, Q68DX3 (Q68DX3 770-861): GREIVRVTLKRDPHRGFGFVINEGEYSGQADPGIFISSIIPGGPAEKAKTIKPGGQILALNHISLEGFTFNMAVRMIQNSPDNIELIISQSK
row,Binder,pKd
1,"CLREWCDAFL [BANF1, O75531]",below the threshold
2,"LGRSTPQSEV [DGKH, Q86XP1]",below the threshold

# Biological target: T8, APBA1_1, Q02410
# Test: holdup assay
# Design: key: below the threshold = too weak to quantify, mostly under pKd 3.1 to 4
# Conditions: plain residues with an end cap or a label only (N-terminal biotin on a linker: ado-ado)
row,Binder,pKd
1,"CLREWCDAFL [BANF1, O75531]",3.72
2,"LGRSTPQSEV [DGKH, Q86XP1]",below the threshold

# Biological target: T9, FRMPD1, Q5SYB0
# Test: holdup assay
# Design: key: below the threshold = too weak to quantify, mostly under pKd 3.1 to 4
# Conditions: plain residues with an end cap or a label only (N-terminal biotin on a linker: ado-ado)
row,Binder,pKd
1,"CLREWCDAFL [BANF1, O75531]",below the threshold
2,"LGRSTPQSEV [DGKH, Q86XP1]",below the threshold

# Biological target: T10, DLG3_3, Q92796
# Test: holdup assay
# Design: key: below the threshold = too weak to quantify, mostly under pKd 3.1 to 4
# Conditions: plain residues with an end cap or a label only (N-terminal biotin on a linker: ado-ado)
row,Binder,pKd
1,"CLREWCDAFL [BANF1, O75531]",below the threshold
2,"LGRSTPQSEV [DGKH, Q86XP1]",below the threshold

# Biological target: MAGI2_3, Q86UL8
# Test: holdup assay
# Design: key: below the threshold = too weak to quantify, mostly under pKd 3.1 to 4
# Conditions: plain residues with an end cap or a label only (N-terminal biotin on a linker: ado-ado)
# Chain of MAGI2_3, Q86UL8 (Q86UL8 600-682): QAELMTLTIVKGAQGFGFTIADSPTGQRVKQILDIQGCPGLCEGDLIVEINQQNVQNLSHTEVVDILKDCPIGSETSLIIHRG
row,Binder,pKd
1,"CLREWCDAFL [BANF1, O75531]",below the threshold
2,"LGRSTPQSEV [DGKH, Q86XP1]",below the threshold

# Biological target: NHERF4_1, Q86UT5-2
# Test: holdup assay
# Design: key: below the threshold = too weak to quantify, mostly under pKd 3.1 to 4
# Conditions: plain residues with an end cap or a label only (N-terminal biotin on a linker: ado-ado)
# Chain of NHERF4_1, Q86UT5-2 (Q86UT5 other isoform, or with tags, fused parts or gaps): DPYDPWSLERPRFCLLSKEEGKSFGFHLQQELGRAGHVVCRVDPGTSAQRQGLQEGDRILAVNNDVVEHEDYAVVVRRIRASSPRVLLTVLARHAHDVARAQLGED
row,Binder,pKd
1,"CLREWCDAFL [BANF1, O75531]",4.13
2,"LGRSTPQSEV [DGKH, Q86XP1]",below the threshold

# Biological target: AHNAK1, Q09666
# Test: holdup assay
# Design: key: below the threshold = too weak to quantify, mostly under pKd 3.1 to 4
# Conditions: plain residues with an end cap or a label only (N-terminal biotin on a linker: ado-ado)
# Chain of AHNAK1, Q09666 (Q09666 4-100): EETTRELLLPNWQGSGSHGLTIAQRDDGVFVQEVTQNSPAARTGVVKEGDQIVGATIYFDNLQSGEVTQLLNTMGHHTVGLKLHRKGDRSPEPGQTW
row,Binder,pKd
1,"CLREWCDAFL [BANF1, O75531]",below the threshold
2,"LGRSTPQSEV [DGKH, Q86XP1]",below the threshold

# Biological target: T11, TJP3_3, O95049
# Test: holdup assay
# Design: key: below the threshold = too weak to quantify, mostly under pKd 3.1 to 4
# Conditions: plain residues with an end cap or a label only (N-terminal biotin on a linker: ado-ado)
row,Binder,pKd
1,"CLREWCDAFL [BANF1, O75531]",3.86
2,"LGRSTPQSEV [DGKH, Q86XP1]",below the threshold

# Biological target: PARD3_3, Q8TEW0
# Test: holdup assay
# Design: key: below the threshold = too weak to quantify, mostly under pKd 3.1 to 4
# Conditions: plain residues with an end cap or a label only (N-terminal biotin on a linker: ado-ado)
# Chain of PARD3_3, Q8TEW0 (Q8TEW0 582-685): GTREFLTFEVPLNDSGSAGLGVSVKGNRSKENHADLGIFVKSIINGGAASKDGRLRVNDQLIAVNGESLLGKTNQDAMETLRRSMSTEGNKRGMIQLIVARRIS
row,Binder,pKd
1,"CLREWCDAFL [BANF1, O75531]",4.43
2,"LGRSTPQSEV [DGKH, Q86XP1]",below the threshold

# Biological target: Inadl_8, Q8NI35
# Test: holdup assay
# Design: key: below the threshold = too weak to quantify, mostly under pKd 3.1 to 4
# Conditions: plain residues with an end cap or a label only (N-terminal biotin on a linker: ado-ado)
# Chain of Inadl_8, Q8NI35 (Q8NI35 1425-1530): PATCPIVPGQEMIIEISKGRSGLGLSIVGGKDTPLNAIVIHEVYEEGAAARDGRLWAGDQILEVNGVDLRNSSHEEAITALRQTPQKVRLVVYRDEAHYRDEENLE
row,Binder,pKd
1,"CLREWCDAFL [BANF1, O75531]",below the threshold
2,"LGRSTPQSEV [DGKH, Q86XP1]",3.98
